According to patent publication US20180155451A1 (published 2018):

The binders below were run against T1, FcγRIa extracellular domain with C-terminal His tag (human, UniProt P12314 16-292) (assay: SPR (Biacore), captured antibody, FcγRIa analyte; relative to GpH7-B3/GpL16-k0 = 100).
T1 construct: extracellular domain; Expressed in FreeStyle293 cells; used as analyte in Biacore; also called FcgRI; 1a; not shown: His tag at the C terminus
T1 sequence (P12314 16-292): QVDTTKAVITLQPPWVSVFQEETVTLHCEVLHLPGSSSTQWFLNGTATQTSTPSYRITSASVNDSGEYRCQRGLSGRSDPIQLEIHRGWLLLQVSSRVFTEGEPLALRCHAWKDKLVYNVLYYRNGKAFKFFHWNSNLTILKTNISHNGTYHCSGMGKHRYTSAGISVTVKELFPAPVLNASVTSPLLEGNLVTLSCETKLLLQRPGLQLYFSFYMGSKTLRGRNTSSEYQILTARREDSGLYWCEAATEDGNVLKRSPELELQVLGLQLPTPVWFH

| Binder | Ho/Con_1a |
| --- | --- |
| GpH7-B3 variant (T335_04F)/GpL16-k0 (antibody, human IgG1, kappa, Homodimerized; both H chains altered; also called Ho Ab T335_04F) heavy: not shown light: DIVMTQSPLSLPVTPGEPASISCQASESLVHSNRNTYLHWYLQKPGQSPQLLIYKVSNRFSGVPDRFSGSGSGTDFTLKISRVEAEDVGVYYCSQNTHVPPTFGQGTKVEIERTVAAPSVFIFPPSDEQLKSGTASVVCLLNNFYPREAKVQWKVDNALQSGNSQESVTEQDSKDSTYSLSSTLTLSKADYEKHKVYACEVTHQGLSSPVTKSFNRGEC | 105 % of control |
| GpH7-B3 variant (A330_01G)/GpL16-k0 (antibody, human IgG1, kappa, Homodimerized; both H chains altered; also called Ho Ab A330_01G) heavy: not shown light: DIVMTQSPLSLPVTPGEPASISCQASESLVHSNRNTYLHWYLQKPGQSPQLLIYKVSNRFSGVPDRFSGSGSGTDFTLKISRVEAEDVGVYYCSQNTHVPPTFGQGTKVEIERTVAAPSVFIFPPSDEQLKSGTASVVCLLNNFYPREAKVQWKVDNALQSGNSQESVTEQDSKDSTYSLSSTLTLSKADYEKHKVYACEVTHQGLSSPVTKSFNRGEC | 106 % of control |
| GpH7-B3 variant (A330_19Q)/GpL16-k0 (antibody, human IgG1, kappa, Homodimerized; both H chains altered; also called Ho Ab A330_19Q) heavy: not shown light: DIVMTQSPLSLPVTPGEPASISCQASESLVHSNRNTYLHWYLQKPGQSPQLLIYKVSNRFSGVPDRFSGSGSGTDFTLKISRVEAEDVGVYYCSQNTHVPPTFGQGTKVEIERTVAAPSVFIFPPSDEQLKSGTASVVCLLNNFYPREAKVQWKVDNALQSGNSQESVTEQDSKDSTYSLSSTLTLSKADYEKHKVYACEVTHQGLSSPVTKSFNRGEC | 106 % of control |
| GpH7-B3 variant (A330_20W)/GpL16-k0 (antibody, human IgG1, kappa, Homodimerized; both H chains altered; also called Ho Ab A330_20W) heavy: not shown light: DIVMTQSPLSLPVTPGEPASISCQASESLVHSNRNTYLHWYLQKPGQSPQLLIYKVSNRFSGVPDRFSGSGSGTDFTLKISRVEAEDVGVYYCSQNTHVPPTFGQGTKVEIERTVAAPSVFIFPPSDEQLKSGTASVVCLLNNFYPREAKVQWKVDNALQSGNSQESVTEQDSKDSTYSLSSTLTLSKADYEKHKVYACEVTHQGLSSPVTKSFNRGEC | 108 % of control |
| GpH7-B3 variant (H268_01G)/GpL16-k0 (antibody, human IgG1, kappa, Homodimerized; both H chains altered; also called Ho Ab H268_01G) heavy: not shown light: DIVMTQSPLSLPVTPGEPASISCQASESLVHSNRNTYLHWYLQKPGQSPQLLIYKVSNRFSGVPDRFSGSGSGTDFTLKISRVEAEDVGVYYCSQNTHVPPTFGQGTKVEIERTVAAPSVFIFPPSDEQLKSGTASVVCLLNNFYPREAKVQWKVDNALQSGNSQESVTEQDSKDSTYSLSSTLTLSKADYEKHKVYACEVTHQGLSSPVTKSFNRGEC | 108 % of control |
| GpH7-B3 variant (D265_10E)/GpL16-k0 (antibody, human IgG1, kappa, Homodimerized; both H chains altered; also called Ho Ab D265_10E) heavy: not shown light: DIVMTQSPLSLPVTPGEPASISCQASESLVHSNRNTYLHWYLQKPGQSPQLLIYKVSNRFSGVPDRFSGSGSGTDFTLKISRVEAEDVGVYYCSQNTHVPPTFGQGTKVEIERTVAAPSVFIFPPSDEQLKSGTASVVCLLNNFYPREAKVQWKVDNALQSGNSQESVTEQDSKDSTYSLSSTLTLSKADYEKHKVYACEVTHQGLSSPVTKSFNRGEC | 103 % of control |
| GpH7-B3 variant (A330_04F)/GpL16-k0 (antibody, human IgG1, kappa, Homodimerized; both H chains altered; also called Ho Ab A330_04F) heavy: not shown light: DIVMTQSPLSLPVTPGEPASISCQASESLVHSNRNTYLHWYLQKPGQSPQLLIYKVSNRFSGVPDRFSGSGSGTDFTLKISRVEAEDVGVYYCSQNTHVPPTFGQGTKVEIERTVAAPSVFIFPPSDEQLKSGTASVVCLLNNFYPREAKVQWKVDNALQSGNSQESVTEQDSKDSTYSLSSTLTLSKADYEKHKVYACEVTHQGLSSPVTKSFNRGEC | 107 % of control |
| GpH7-B3 variant (A330_10E)/GpL16-k0 (antibody, human IgG1, kappa, Homodimerized; both H chains altered; also called Ho Ab A330_10E) heavy: not shown light: DIVMTQSPLSLPVTPGEPASISCQASESLVHSNRNTYLHWYLQKPGQSPQLLIYKVSNRFSGVPDRFSGSGSGTDFTLKISRVEAEDVGVYYCSQNTHVPPTFGQGTKVEIERTVAAPSVFIFPPSDEQLKSGTASVVCLLNNFYPREAKVQWKVDNALQSGNSQESVTEQDSKDSTYSLSSTLTLSKADYEKHKVYACEVTHQGLSSPVTKSFNRGEC | 108 % of control |
| GpH7-B3 variant (H268_09D)/GpL16-k0 (antibody, human IgG1, kappa, Homodimerized; both H chains altered; also called Ho Ab H268_09D) heavy: not shown light: DIVMTQSPLSLPVTPGEPASISCQASESLVHSNRNTYLHWYLQKPGQSPQLLIYKVSNRFSGVPDRFSGSGSGTDFTLKISRVEAEDVGVYYCSQNTHVPPTFGQGTKVEIERTVAAPSVFIFPPSDEQLKSGTASVVCLLNNFYPREAKVQWKVDNALQSGNSQESVTEQDSKDSTYSLSSTLTLSKADYEKHKVYACEVTHQGLSSPVTKSFNRGEC | 110 % of control |

Other lines, results leading:

| Ho/Con_1a | Binder |
| --- | --- |
| 109 % of control | GpH7-B3 variant (I336_12R)/GpL16-k0 (antibody, human IgG1, kappa, Homodimerized; both H chains altered; also called Ho Ab I336_12R) heavy: not shown light: DIVMTQSPLSLPVTPGEPASISCQASESLVHSNRNTYLHWYLQKPGQSPQLLIYKVSNRFSGVPDRFSGSGSGTDFTLKISRVEAEDVGVYYCSQNTHVPPTFGQGTKVEIERTVAAPSVFIFPPSDEQLKSGTASVVCLLNNFYPREAKVQWKVDNALQSGNSQESVTEQDSKDSTYSLSSTLTLSKADYEKHKVYACEVTHQGLSSPVTKSFNRGEC |
| 110 % of control | GpH7-B3 variant (H268_13S)/GpL16-k0 (antibody, human IgG1, kappa, Homodimerized; both H chains altered; also called Ho Ab H268_13S) heavy: not shown light: DIVMTQSPLSLPVTPGEPASISCQASESLVHSNRNTYLHWYLQKPGQSPQLLIYKVSNRFSGVPDRFSGSGSGTDFTLKISRVEAEDVGVYYCSQNTHVPPTFGQGTKVEIERTVAAPSVFIFPPSDEQLKSGTASVVCLLNNFYPREAKVQWKVDNALQSGNSQESVTEQDSKDSTYSLSSTLTLSKADYEKHKVYACEVTHQGLSSPVTKSFNRGEC |
| 109 % of control | GpH7-B3 variant (I336_08L)/GpL16-k0 (antibody, human IgG1, kappa, Homodimerized; both H chains altered; also called Ho Ab I336_08L) heavy: not shown light: DIVMTQSPLSLPVTPGEPASISCQASESLVHSNRNTYLHWYLQKPGQSPQLLIYKVSNRFSGVPDRFSGSGSGTDFTLKISRVEAEDVGVYYCSQNTHVPPTFGQGTKVEIERTVAAPSVFIFPPSDEQLKSGTASVVCLLNNFYPREAKVQWKVDNALQSGNSQESVTEQDSKDSTYSLSSTLTLSKADYEKHKVYACEVTHQGLSSPVTKSFNRGEC |
| 108 % of control | GpH7-B3 variant (I336_09D)/GpL16-k0 (antibody, human IgG1, kappa, Homodimerized; both H chains altered; also called Ho Ab I336_09D) heavy: not shown light: DIVMTQSPLSLPVTPGEPASISCQASESLVHSNRNTYLHWYLQKPGQSPQLLIYKVSNRFSGVPDRFSGSGSGTDFTLKISRVEAEDVGVYYCSQNTHVPPTFGQGTKVEIERTVAAPSVFIFPPSDEQLKSGTASVVCLLNNFYPREAKVQWKVDNALQSGNSQESVTEQDSKDSTYSLSSTLTLSKADYEKHKVYACEVTHQGLSSPVTKSFNRGEC |
| 112 % of control | GpH7-B3 variant (H268_10E)/GpL16-k0 (antibody, human IgG1, kappa, Homodimerized; both H chains altered; also called Ho Ab H268_10E) heavy: not shown light: DIVMTQSPLSLPVTPGEPASISCQASESLVHSNRNTYLHWYLQKPGQSPQLLIYKVSNRFSGVPDRFSGSGSGTDFTLKISRVEAEDVGVYYCSQNTHVPPTFGQGTKVEIERTVAAPSVFIFPPSDEQLKSGTASVVCLLNNFYPREAKVQWKVDNALQSGNSQESVTEQDSKDSTYSLSSTLTLSKADYEKHKVYACEVTHQGLSSPVTKSFNRGEC |
| 107 % of control | GpH7-B3 variant (I336_11K)/GpL16-k0 (antibody, human IgG1, kappa, Homodimerized; both H chains altered; also called Ho Ab I336_11K) heavy: not shown light: DIVMTQSPLSLPVTPGEPASISCQASESLVHSNRNTYLHWYLQKPGQSPQLLIYKVSNRFSGVPDRFSGSGSGTDFTLKISRVEAEDVGVYYCSQNTHVPPTFGQGTKVEIERTVAAPSVFIFPPSDEQLKSGTASVVCLLNNFYPREAKVQWKVDNALQSGNSQESVTEQDSKDSTYSLSSTLTLSKADYEKHKVYACEVTHQGLSSPVTKSFNRGEC |
| 108 % of control | GpH7-B3 variant (H268_18N)/GpL16-k0 (antibody, human IgG1, kappa, Homodimerized; both H chains altered; also called Ho Ab H268_18N) heavy: not shown light: DIVMTQSPLSLPVTPGEPASISCQASESLVHSNRNTYLHWYLQKPGQSPQLLIYKVSNRFSGVPDRFSGSGSGTDFTLKISRVEAEDVGVYYCSQNTHVPPTFGQGTKVEIERTVAAPSVFIFPPSDEQLKSGTASVVCLLNNFYPREAKVQWKVDNALQSGNSQESVTEQDSKDSTYSLSSTLTLSKADYEKHKVYACEVTHQGLSSPVTKSFNRGEC |
